For 1 substance, Kd results are on record in article PMC8906176.

pKd: −log10 of the molar value.

Targets include C12b-AM1 monobody; C12b-AM2 monobody; C4-AM1 monobody; C4-AM2 monobody; C6b-AM2 monobody.
Holding throughout (assay): BLI
On the technique in general: BLI is a label-free optical method that tracks binding on a fibre tip over time.

For “SARS-CoV-2 S protein receptor-binding domain, wild type (B.1.1) (from UniProt P0DTC2) (domain or fragment)”, the pKd with C12b-AM1 monobody is 9.00; with C12b-AM2 monobody it was above 11.00; with C4-AM1 monobody it was 9.96; with C4-AM2 monobody, above 11.00; in the experiment with C6b-AM2 monobody, 9.44.

In general, pKd refers to the negative decadic logarithm of the Kd, by convention in mol/L.
